Experimental data published in IntAct's records for PubMed 35512704.

B1: Speckle-type POZ protein (Homo sapiens), O43791 (parent)
chain: MSRVPSPPPPAEMSSGPVAESWCYTQIKVVKFSYMWTINNFSFCREEMGEVIKSSTFSSGANDKLKWCLRVNPKGLDEESKDYLSLYLLLVSCPKSEVRAKFKFSILNAKGEETKAMESQRAYRFVQGKDWGFKKFIRRDFLLDEANGLLPDDKLTLFCEVSVVQDSVNISGQNTMNMVKVPECRLADELGGLWENSRFTDCCLCVAGQEFQAHKAILAARSPVFSAMFEHEMEESKKNRVEINDVEPEVFKEMMCFIYTGKAPNLDKMADDLLAAADKYALERLKVMCEDALCSNLSVENAAEILILADLHSADQLKTQAVDFINYHASDVLETSGWKSMVVSHPHLVAEAYRSLASAQCPFLGPPRKRLKQS
partner: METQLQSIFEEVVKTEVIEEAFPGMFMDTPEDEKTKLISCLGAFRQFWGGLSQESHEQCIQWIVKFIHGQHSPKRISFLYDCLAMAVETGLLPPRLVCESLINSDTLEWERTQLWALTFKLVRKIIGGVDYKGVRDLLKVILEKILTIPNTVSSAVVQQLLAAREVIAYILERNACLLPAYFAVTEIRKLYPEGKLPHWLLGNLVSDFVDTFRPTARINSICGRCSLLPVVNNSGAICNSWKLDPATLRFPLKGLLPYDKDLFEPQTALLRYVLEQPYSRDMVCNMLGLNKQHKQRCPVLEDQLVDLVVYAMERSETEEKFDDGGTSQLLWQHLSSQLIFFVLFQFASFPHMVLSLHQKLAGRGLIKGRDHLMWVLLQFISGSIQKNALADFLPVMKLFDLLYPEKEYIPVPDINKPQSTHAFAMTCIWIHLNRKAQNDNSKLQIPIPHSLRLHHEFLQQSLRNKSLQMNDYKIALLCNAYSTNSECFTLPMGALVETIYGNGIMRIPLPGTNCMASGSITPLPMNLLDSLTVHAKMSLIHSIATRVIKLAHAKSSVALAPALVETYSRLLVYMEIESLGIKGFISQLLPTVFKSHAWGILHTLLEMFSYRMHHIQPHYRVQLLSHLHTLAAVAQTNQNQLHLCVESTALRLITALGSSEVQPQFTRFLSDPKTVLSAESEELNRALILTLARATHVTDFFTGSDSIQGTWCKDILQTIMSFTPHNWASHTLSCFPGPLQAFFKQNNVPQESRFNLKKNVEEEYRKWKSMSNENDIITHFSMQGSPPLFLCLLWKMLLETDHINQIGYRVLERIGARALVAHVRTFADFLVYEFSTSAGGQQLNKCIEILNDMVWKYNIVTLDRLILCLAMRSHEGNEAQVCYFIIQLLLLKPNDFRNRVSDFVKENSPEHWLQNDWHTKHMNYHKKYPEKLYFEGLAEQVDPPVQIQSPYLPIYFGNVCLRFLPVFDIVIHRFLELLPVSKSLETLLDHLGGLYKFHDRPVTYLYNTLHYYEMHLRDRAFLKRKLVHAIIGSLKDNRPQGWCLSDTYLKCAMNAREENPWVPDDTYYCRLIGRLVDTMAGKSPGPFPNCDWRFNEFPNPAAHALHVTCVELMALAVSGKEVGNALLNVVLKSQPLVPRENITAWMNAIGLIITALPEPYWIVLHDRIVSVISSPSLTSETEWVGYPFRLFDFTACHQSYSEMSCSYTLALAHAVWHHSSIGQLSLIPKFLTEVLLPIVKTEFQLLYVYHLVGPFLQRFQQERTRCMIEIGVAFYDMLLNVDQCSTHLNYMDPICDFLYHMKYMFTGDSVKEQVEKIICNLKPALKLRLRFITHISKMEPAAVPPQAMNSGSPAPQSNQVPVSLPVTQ
B2: Speckle-type POZ protein (Homo sapiens), O43791 (parent)
chain: B1 chain
partner: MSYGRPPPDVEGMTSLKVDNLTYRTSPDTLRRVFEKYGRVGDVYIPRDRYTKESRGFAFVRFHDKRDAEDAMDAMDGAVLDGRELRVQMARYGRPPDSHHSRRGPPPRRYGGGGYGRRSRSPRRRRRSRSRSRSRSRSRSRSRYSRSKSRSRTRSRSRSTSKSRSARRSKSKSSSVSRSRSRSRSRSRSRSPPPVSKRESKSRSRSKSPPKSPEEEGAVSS
B3: Speckle-type POZ protein (Homo sapiens), O43791 (parent)
chain: B1 chain
partner: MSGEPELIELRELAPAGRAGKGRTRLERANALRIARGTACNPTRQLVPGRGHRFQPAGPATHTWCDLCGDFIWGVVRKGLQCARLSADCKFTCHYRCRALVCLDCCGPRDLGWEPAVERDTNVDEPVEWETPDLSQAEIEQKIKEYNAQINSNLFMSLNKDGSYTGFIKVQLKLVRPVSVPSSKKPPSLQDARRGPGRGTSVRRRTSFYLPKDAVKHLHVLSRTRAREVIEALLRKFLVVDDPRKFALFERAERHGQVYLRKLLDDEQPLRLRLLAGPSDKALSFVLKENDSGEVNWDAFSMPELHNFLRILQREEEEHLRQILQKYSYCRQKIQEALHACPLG
B4: Speckle-type POZ protein (Homo sapiens), O43791 (parent)
chain: B1 chain
partner: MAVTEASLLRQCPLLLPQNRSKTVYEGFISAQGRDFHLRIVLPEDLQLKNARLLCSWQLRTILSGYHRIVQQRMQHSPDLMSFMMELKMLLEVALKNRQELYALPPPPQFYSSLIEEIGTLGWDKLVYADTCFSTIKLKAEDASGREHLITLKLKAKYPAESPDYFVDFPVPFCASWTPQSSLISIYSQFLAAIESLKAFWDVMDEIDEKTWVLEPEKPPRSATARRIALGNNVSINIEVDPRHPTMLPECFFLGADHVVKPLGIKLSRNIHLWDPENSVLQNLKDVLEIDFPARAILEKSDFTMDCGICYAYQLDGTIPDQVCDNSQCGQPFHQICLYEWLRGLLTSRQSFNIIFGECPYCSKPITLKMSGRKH
B5: Speckle-type POZ protein (Homo sapiens), O43791 (parent)
chain: B1 chain
partner: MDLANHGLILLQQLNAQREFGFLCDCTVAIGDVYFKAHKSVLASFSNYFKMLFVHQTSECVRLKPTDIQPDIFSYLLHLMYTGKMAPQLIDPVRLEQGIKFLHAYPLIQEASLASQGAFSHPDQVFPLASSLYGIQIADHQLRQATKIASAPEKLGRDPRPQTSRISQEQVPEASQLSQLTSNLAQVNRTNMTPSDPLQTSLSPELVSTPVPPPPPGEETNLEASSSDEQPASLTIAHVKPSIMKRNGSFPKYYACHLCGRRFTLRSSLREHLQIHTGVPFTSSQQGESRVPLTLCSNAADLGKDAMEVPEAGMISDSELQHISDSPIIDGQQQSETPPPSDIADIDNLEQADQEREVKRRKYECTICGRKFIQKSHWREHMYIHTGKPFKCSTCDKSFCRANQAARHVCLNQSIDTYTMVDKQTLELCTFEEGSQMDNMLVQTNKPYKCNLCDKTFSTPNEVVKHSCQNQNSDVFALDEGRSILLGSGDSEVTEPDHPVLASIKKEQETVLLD
B6: Speckle-type POZ protein (Homo sapiens), O43791 (parent)
chain: B1 chain
partner: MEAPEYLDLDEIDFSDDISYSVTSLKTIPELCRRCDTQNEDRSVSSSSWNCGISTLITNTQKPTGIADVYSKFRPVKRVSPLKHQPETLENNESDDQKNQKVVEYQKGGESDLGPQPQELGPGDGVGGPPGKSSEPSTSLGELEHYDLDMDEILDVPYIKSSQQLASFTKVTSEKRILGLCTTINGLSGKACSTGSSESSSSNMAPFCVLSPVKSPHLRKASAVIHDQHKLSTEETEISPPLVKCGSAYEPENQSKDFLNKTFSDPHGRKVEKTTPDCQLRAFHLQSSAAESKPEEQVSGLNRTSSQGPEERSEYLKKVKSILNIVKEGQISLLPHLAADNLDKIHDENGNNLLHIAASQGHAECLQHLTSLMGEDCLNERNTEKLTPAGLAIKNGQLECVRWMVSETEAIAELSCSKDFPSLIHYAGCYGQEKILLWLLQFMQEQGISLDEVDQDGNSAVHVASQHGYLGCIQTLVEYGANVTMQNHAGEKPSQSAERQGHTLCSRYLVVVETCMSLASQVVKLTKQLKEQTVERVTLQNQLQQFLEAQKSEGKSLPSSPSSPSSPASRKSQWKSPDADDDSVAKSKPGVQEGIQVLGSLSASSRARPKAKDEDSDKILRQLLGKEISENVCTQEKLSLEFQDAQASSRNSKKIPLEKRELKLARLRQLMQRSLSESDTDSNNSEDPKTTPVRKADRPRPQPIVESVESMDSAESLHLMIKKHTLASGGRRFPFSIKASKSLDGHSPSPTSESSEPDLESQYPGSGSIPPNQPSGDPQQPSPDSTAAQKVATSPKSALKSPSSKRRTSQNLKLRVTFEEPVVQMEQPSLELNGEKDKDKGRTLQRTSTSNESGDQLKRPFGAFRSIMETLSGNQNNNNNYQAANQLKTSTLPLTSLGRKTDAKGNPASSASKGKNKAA
B7: Speckle-type POZ protein (Homo sapiens), O43791 (parent)
chain: B1 chain
partner: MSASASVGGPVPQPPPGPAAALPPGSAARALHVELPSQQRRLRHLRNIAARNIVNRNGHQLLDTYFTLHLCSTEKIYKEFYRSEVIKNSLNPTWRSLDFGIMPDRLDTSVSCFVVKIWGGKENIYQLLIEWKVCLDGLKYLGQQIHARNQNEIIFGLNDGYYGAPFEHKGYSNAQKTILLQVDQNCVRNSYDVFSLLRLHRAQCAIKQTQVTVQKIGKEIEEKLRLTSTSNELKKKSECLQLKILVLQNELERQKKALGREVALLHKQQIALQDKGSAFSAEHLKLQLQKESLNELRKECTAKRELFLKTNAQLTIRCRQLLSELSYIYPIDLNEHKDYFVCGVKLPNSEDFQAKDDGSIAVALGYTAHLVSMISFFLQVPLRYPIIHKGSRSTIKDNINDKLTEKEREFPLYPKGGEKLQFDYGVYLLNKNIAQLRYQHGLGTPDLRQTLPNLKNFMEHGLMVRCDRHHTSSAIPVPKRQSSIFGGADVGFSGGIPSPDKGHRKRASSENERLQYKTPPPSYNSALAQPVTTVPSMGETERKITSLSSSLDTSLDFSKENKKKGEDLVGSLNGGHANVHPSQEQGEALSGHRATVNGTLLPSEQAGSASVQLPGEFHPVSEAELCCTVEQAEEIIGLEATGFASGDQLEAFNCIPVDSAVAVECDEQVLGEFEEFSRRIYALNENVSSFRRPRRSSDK

Variants of: B1
Settings: with med23_human MED23, Q9ULK4

Row | Variant | effect of a mutation on the interaction
1 | F133V | with no effect

Variants of: B2
Settings: with srsf2_human SRSF2, Q01130

Row | Variant | effect of a mutation on the interaction
2 | F102C | with no effect

Variants of: B2
Settings: with srsf2_human SRSF2, Q01130
Remark: another data set of the same source

Row | Variant | effect of a mutation on the interaction
3 | Y87C | with no effect

Variants of: B2
Settings: with srsf2_human SRSF2, Q01130
Remark: another data set of the same source

Row | Variant | effect of a mutation on the interaction
4 | F133L | with no effect

Variants of: B2
Settings: with srsf2_human SRSF2, Q01130
Remark: another data set of the same source

Row | Variant | effect of a mutation on the interaction
5 | F133V | with no effect

Variants of: B3
Settings: with rasf1_human RASSF1, Q9NS23

Row | Variant | effect of a mutation on the interaction
6 | F133L | with no effect

Variants of: B3
Settings: with rasf1_human RASSF1, Q9NS23
Remark: another data set of the same source

Row | Variant | effect of a mutation on the interaction
7 | F133V | with no effect

Variants of: B3
Settings: with rasf1_human RASSF1, Q9NS23
Remark: another data set of the same source

Row | Variant | effect of a mutation on the interaction
8 | F102C | with no effect

Variants of: B3
Settings: with rasf1_human RASSF1, Q9NS23
Remark: another data set of the same source

Row | Variant | effect of a mutation on the interaction
9 | Y87C | with no effect

Variants of: B4
Settings: with fancl_human FANCL

Row | Variant | effect of a mutation on the interaction
10 | Y87C | with no effect

Variants of: B4
Settings: with fancl_human FANCL
Remark: another data set of the same source

Row | Variant | effect of a mutation on the interaction
11 | F133L | with no effect

Variants of: B5
Settings: with zbtb2_human ZBTB2, Q8N680

Row | Variant | effect of a mutation on the interaction
12 | Y87C | with no effect

Variants of: B5
Settings: with zbtb2_human ZBTB2, Q8N680
Remark: another data set of the same source

Row | Variant | effect of a mutation on the interaction
13 | F133V | causing an interaction

Variants of: B5
Settings: with zbtb2_human ZBTB2, Q8N680
Remark: another data set of the same source

Row | Variant | effect of a mutation on the interaction
14 | F133L | with no effect

Variants of: B5
Settings: with zbtb2_human ZBTB2, Q8N680
Remark: another data set of the same source

Row | Variant | effect of a mutation on the interaction
15 | F133L | causing an interaction

Variants of: B6
Settings: with sncap_human SNCAIP

Row | Variant | effect of a mutation on the interaction
16 | F102C | with no effect

Variants of: B6
Settings: with sncap_human SNCAIP
Remark: another data set of the same source

Row | Variant | effect of a mutation on the interaction
17 | Y87C | with no effect

Variants of: B6
Settings: with sncap_human SNCAIP
Remark: another data set of the same source

Row | Variant | effect of a mutation on the interaction
18 | F133L | with no effect

Variants of: B6
Settings: with sncap_human SNCAIP
Remark: another data set of the same source

Row | Variant | effect of a mutation on the interaction
19 | F133V | with no effect

Variants of: B7
Settings: with uvrag_human UVRAG

Row | Variant | effect of a mutation on the interaction
20 | Y87C | with no effect

Variants of: B7
Settings: with uvrag_human UVRAG
Remark: another data set of the same source

Row | Variant | effect of a mutation on the interaction
21 | F102C | with no effect

Variants of: B7
Settings: with uvrag_human UVRAG
Remark: another data set of the same source

Row | Variant | effect of a mutation on the interaction
22 | F133L | with no effect
